{"source": "patent US8840886B2", "about": "“Method of treating cancer with DLL4 antagonist and chemotherapeutic agent” (Regeneron Pharmaceuticals, Inc., priority 2009, dated 2014)", "key": {"[1]": {"test_system": "human HCT116 tumor cells (CRC)", "assay": "HCT116 colorectal xenograft tumor growth, REGN421 with 5-FU (Example 5)", "format": "in vivo, mouse", "settings": "REGN421 2 mg/kg sc (6 mg/kg total dose)", "procedure": "The effect of anti-Dll4 Ab (REGN421) in combination with 5-FU on tumor growth was evaluated on tumors implanted in humanized Dll4 SCID mice. Each mouse was implanted subcutaneously (sc) with 5×10^6 human HCT116 tumor cells (CRC). After the tumors were established in the mice (tumor size of ˜150 mm^3, 22 days after implantation), tumors were measured and randomized. The mice were then treated with hFc, REGN421, 5-FU or combination of REGN421 and 5-FU. A total of 30 mice were divided into 6 groups (n=5 per cohort). The first group was treated sc with hFc at 2 mg/kg; the second group was treated sc with REGN421 at 2 mg/kg; the third and fourth groups were treated ip with 5-FU at 15 and 25 mg/kg, respectively; the fifth group was treated sc with REGN421 at 2 mg/kg and ip with 5-FU at 15 mg/kg; and the sixth group was treated sc with REGN421 at 2 mg/kg and ip with 5-FU at 25 mg/kg. REGN421 was administered every 3-4 days starting on day 22 and mice received three doses total. 5-FU was administered every 3-4 days starting on day 22 and mice received three doses total.\nTo assess the effects of REGN421 and 5-FU as single agents or in combination, the changes in tumor size (volume) were measured, beginning three days before the initial REGN421 treatment, and then on the day of each agent treatment (days 22, 26, 29) and thereafter every 3-4 days until tumors reach ˜600 mm^3 in size. In vivo tumor size is calculated using the formula (length×width^2)/2 (FIG. 3 and Table 5)."}, "[2]": {"test_system": "human A549 tumor cells (non-small cell lung cancer)", "assay": "A549 NSCLC xenograft tumor growth, REGN421 with cisplatin (Example 2)", "format": "in vivo, mouse", "settings": "REGN421 2 mg/kg sc (6 mg/kg total dose)", "procedure": "The effect of REGN421 in combination with cisplatin on tumor growth was evaluated on tumors implanted in humanized Dll4 SCID mice, as described above. Each mouse was implanted subcutaneously (sc) with 5×10^6 human A549 tumor cells (non-small cell lung cancer or “NSCLC”). After the tumors were established in the mice (tumor size of 100-150 mm^3, approximately 29 days after implantation), tumors were measured, randomized and treated with hFc, REGN421, cisplatin or combination of REGN421 and cisplatin. A total of 36 mice were divided into 6 groups (n=6 per cohort). The first group was treated sc with hFc at 2 mg/kg; the second group was treated sc with REGN421 at 2 mg/kg; the third and fourth groups were treated ip with cisplatin at 2.5 and 4.5 mg/kg, respectively; the fifth group was treated sc with REGN421 at 2 mg/kg and ip with cisplatin at 2.5 mg/kg; and the sixth group was treated sc with REGN421 at 2 mg/kg and ip with cisplatin at 4.5 mg/kg. REGN421 was administered every 3-4 days starting on day 29 and mice received three doses total. Cisplatin was administered every 24 hours starting on day 29 and mice received two doses total.\nTo assess the effects of REGN421 and cisplatin as single agents or in combination we measured tumor size (volume), beginning three days before the initial REGN421 treatment, on the day of each agent treatment (days 29, 30, 33, 36) and thereafter every 3-4 days until tumors reached ˜600 mm^3 in size. In vivo tumor size was calculated using the formula (length×width^2)/2."}}}
{"molecule": "REGN421: anti-hDll4 antibody comprising HCVR/LCVR combination of SEQ ID NO:116/118 (antibody, V domains shown) VH: QVQLVESGGGVVQPGRSLRLSCAASGFTFSSYGMHWVRQAPGKGLEWVSFLWYDGTNKNYVESVKGRFTISRDNSKNMLYLEMNSLRAEDTAVYYCARDHDFRSGYEGWFDPWGQGTLVTVSS VL: EIVLTQSPATLSLSPGERATLSCRASQSVSSYLAWYQQKPGQAPRLLIYDASNRATGIPARFSGSGSGTDFTLTISSLEPEDFAVYYCQHRSNWPPTFGGGTKVEIK", "values": [{"measurement": "TGD", "setting": "[1]", "value": 6, "unit": "days"}, {"measurement": "TGD", "setting": "[2]", "value": 8, "unit": "days"}]}
